Measurements as given in patent US20120058118A1 (Boehringer Ingelheim, published 2012).
Residue numbers refer to the chain shown, from its start. Read-outs that look alike come from different tables or passages of the source. Ends that are not written are not given here. * marks the point of attachment. Biotin = O=C1N[C@H]2[C@H](CS[C@H]2CCCCC(=O)*)N1

Key:
[1] = molecular target: T1, aggregated A-beta(1-40) peptide (BAA) (human); assay: BAA ELISA
T1 construct: also called A-beta peptide aggregates

[2] = molecular target: T2, human A-beta(1-40) peptide, monomeric (BAM) (human, biotin at the C-terminus in capture ELISA, SPR and TR-FRET; not biotinylated where coated directly (Example 7)); assay: BAM ELISA
T2 construct: synthetic peptide (Anaspec), TFA/HFIP treated to give monomer; also called monomeric A-beta

[3] = molecular target: T2, human A-beta(1-40) peptide, monomeric …; assay: cell-based or functional assay
A-beta(12-28) peptide = molecular target: T3, A-beta(12-28) peptide (human); assay: SPR on captured A-beta(12-28)
T3 construct: Bachem peptide captured on streptavidin chip; also called monomeric A-beta(12-28); central region
T3 peptide: Biotin-VHHQKLVFFAEDVGSNK
Description: (§1) After capturing, surfaces are blocked by injecting an excess (200 μg/ml) of d-biotin for 180 s at 5 μl/min. A reference surface is washed and blocked with d-biotin. HBS-EP+buffer is used as the running buffer and experiments are performed at 25° C. For off-rate screening, periplasmic extracts of VHHs are injected at a 10-fold dilution for 2 min at 45 μl/min and are allowed to dissociate for 10 min. […] Between different VHH samples, the surfaces are regenerated with regeneration buffer (50 mM NaOH) for 25 s at 45 μl/min followed by 10 s 6M GuHCl at 45 μl/min if regeneration is incomplete. […] Data are double referenced by subtraction of the curves on the reference channel and of a blank running buffer injection. Sensorgrams are evaluated by fitting a 1:1 dissociation model using the Biacore T100 Evaluation software v1.1.1.

[4] = molecular target: T2, human A-beta(1-40) peptide, monomeric …; assay: TR-FRET competition, labelled ABII60A10
A-beta(1-16) peptide = molecular target: T4, A-beta(1-16) peptide (human); assay: SPR on captured A-beta(1-16)
T4 construct: Bachem peptide captured on streptavidin chip; also called monomeric A-beta(1-16)
T4 peptide: DAEFRHDSGYEVHHQK-biotin
Description: as §1

[5] = molecular target: T2, human A-beta(1-40) peptide, monomeric …; assay: TR-FRET competition, labelled ABII42D4
[6] = molecular target: T2, human A-beta(1-40) peptide, monomeric …; assay: TR-FRET competition and SPR
[7] = molecular target: T2, human A-beta(1-40) peptide, monomeric …; assay: TR-FRET competition, labelled ABII42D4; remark: listed apart in the source
[8] = molecular target: T2, human A-beta(1-40) peptide, monomeric …; assay: ABII002 TR-FRET competition assay
[9] = molecular target: T2, human A-beta(1-40) peptide, monomeric …; assay: ABII050 TR-FRET competition assay
[10] = molecular target: T2, human A-beta(1-40) peptide, monomeric …; assay: 42D4 TR-FRET assay (labelled ABII42D4)
[11] = molecular target: T2, human A-beta(1-40) peptide, monomeric …; assay: 60A10 TR-FRET assay (labelled ABII60A10)
[12] = molecular target: T1, aggregated A-beta(1-40) peptide (BAA); assay: BAA ELISA; remark: listed apart in the source
[13] = molecular target: T2, human A-beta(1-40) peptide, monomeric …; assay: BAM ELISA; remark: listed apart in the source
[14] = molecular target: T2, human A-beta(1-40) peptide, monomeric …; assay: TR-FRET competition
[15] = molecular target: T2, human A-beta(1-40) peptide, monomeric …; assay: TR-FRET competition; remark: listed apart in the source
[16] = molecular target: T2, human A-beta(1-40) peptide, monomeric …; assay: cell-based or functional assay; remark: listed apart in the source
[17] = molecular target: T2, human A-beta(1-40) peptide, monomeric …; assay: TR-FRET competition, mean IC50
[18] = molecular target: T2, human A-beta(1-40) peptide, monomeric …; assay: TR-FRET competition; labelled competitor not given
[19] = molecular target: T5, human A-beta peptide (residues 1-24) (human); assay: crystal structure
T5 construct: used for co-crystallisation; also called A-beta(1-24)
T5 sequence (peptide, as listed by the source): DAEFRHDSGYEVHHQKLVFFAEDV
Description: The complex is concentrated by diafiltration to a concentration of 4 mg/ml. Crystallization trials are set up as sitting drop vapour diffusion experiments by mixing 200 nl of protein with 200 nl of reservoir solution against a reservoir volume of 100 μl. […] Data are collected at the beamline 6SA of the swiss light source at the Paul-Scherrer Institute in Villigen, Switzerland.

[20] = molecular target: T2, human A-beta(1-40) peptide, monomeric …; assay: ELISA, format not stated
[21] = molecular target: T2, human A-beta(1-40) peptide, monomeric …; assay: ABII002 TR-FRET competition assay; remark: listed apart in the source

B1: ABII14D4 (VHH)
VHH: EVQLVESGGGLVQAGGSLRLSCAASGRTFSTYNMAWFRHAPGKEREFVAAISRSGGSTYYVDSVKGRFTISRDNAKNTVYLQMNSLKPEDTAIYYCAAAPRGRSIVTTATYDYWGQGTQVTVSS
B1 was tested, and the EC50 [1] was 6.8 nM, the EC50 [2] was 124 nM and the “inhibition of peptide aggregation (ThT fluorescence), 28 µM VHH” value (shortened to “inhibition of peptide aggregation”) [3] was 78%. The binding result (A-beta(12-28) peptide) was “binds” and the IC50 [4] was 744 nM.

B2: ABII5D2 (VHH)
VHH: EVQLVESGGGLVQAGGSLRLSCAASGRTFSSYAMGWVRQAPGKERELVATISQSGGLRSYADSVKGRFTISRDNAKNTVYLQMNSLTPGDTAVYYCAAQARATAWSPQRVDYWGQGTQVTVSS
With B2 the EC50 [1] was 11.7 nM, the EC50 [2] was 54.1 nM and the binding result (A-beta(1-16) peptide) was “binds”. The IC50 [5] was greater than 1000 nM.

B3: ABII111B5_E109Q (VHH)
VHH: EVQLVESGGGLVLAGGSLRLSCVHSGPTFRTDTMGWFRQAPGKEREFVAAVTWNSGRINYADSVKGRFTVSRDNTRNAAYLQMSGLKDEDTAVYYCTAHRFVVGGNMVQDWRYWGQGTQVTVSS
notes: targeted mutant
With B3 the “fold improvement of IC50 and KD over original ABII42D4” value [6] was greater than 10 fold and the IC50 [7] was 3.7 nM.

B4: ABII111B5_M107E (VHH)
VHH: B3 VHH with M107E, Q109E
notes: targeted mutant
For B4, the “fold improvement of IC50 and KD over original ABII42D4” value [6] was greater than 10 fold and the IC50 [7] was 4.3 nM.

B5: ABII059-27GS-ABII035-MSA_D3 (designed binder)
chain: EVQLLESGGGLVQPGGSLRLSCAASGRTFNNYNMGWFRQAPGKGREFVAAVSRSGVSTYYADSVKGRFTISRDNSKNTVYLQMNSLRPEDTAVYYCAAAYRGTAINVRRSYSSWGQGTLVTVSSGGGSGGGGSGGGGSGGGGSGGGGSGGGEVQLLESGGGLVQPGGSLRLSCVHSGPTFRTDTMGWFRQAPGKGREFVAAVTWNSGRINYADSVKGRFTISRDNSKNTAYLQMNSLRPEDTAVYYCAAHRFVVGGNRVEDWRYWGQGTLVTVSS
notes: built from the printed name; not shown: domain III of mouse serum albumin
Binder B5 has an IC50 [8] of 0.1 nM and an IC50 [9] of 0.12 nM.

B6: ABII60H5 (VHH)
VHH: EVQLVESGGGLVQVGGSLRLSCAASGNIGSINAMGWYRQAPGKEREWVAIITNSGSVNYGPDSVKGRFTISGDNAKNRVYLQMDSLKPEDTAVYYCAAESWGRSPLKYLGQGTQVTVSS
B6 was tested, and the EC50 [2] was greater than 1000 nM and the binding result (A-beta(1-16) peptide) was “binds”.

B7: ABII42D4-35GS-ABII60A10 (designed binder)
chain: EVQLVESGGGLVLAGGSLRLSCVHSGPTFSTDTMGWFRQAPGKEREFVAAVTWNSGRTNYADSVKGRFTVSRDNTRNAAYLQMSGLKDEDTAVYYCTAHRLVVGGTSVGDWRYWGQGTQVTVSSGGGGSGGGGSGGGGSGGGGSGGGGSGGGGSGGGGSEVQLVESGGGLVQAGGSLRLSCAASGRTFNNYNMGWFRQAPGKEREFVAAVSRSGVSTYYADSVKGRFTISRDNAKNAVYLQMNSLKPEDTAIYYCGAAYRGTAINVRRSYDSWGQGTQVTVSS
notes: biparatopic VHH construct
For B7, the IC50 [10] was 0.05 nM and the IC50 [11] was 0.084 nM.

B8: ABII60A10-35GS-ABII42D4 (designed binder)
chain: EVQLVESGGGLVQAGGSLRLSCAASGRTFNNYNMGWFRQAPGKEREFVAAVSRSGVSTYYADSVKGRFTISRDNAKNAVYLQMNSLKPEDTAIYYCGAAYRGTAINVRRSYDSWGQGTQVTVSSGGGGSGGGGSGGGGSGGGGSGGGGSGGGGSGGGGSEVQLVESGGGLVLAGGSLRLSCVHSGPTFSTDTMGWFRQAPGKEREFVAAVTWNSGRTNYADSVKGRFTVSRDNTRNAAYLQMSGLKDEDTAVYYCTAHRLVVGGTSVGDWRYWGQGTQVTVSS
notes: biparatopic VHH construct
Work on B8 yielded an IC50 [10] of 0.055 nM and an IC50 [11] of 0.091 nM.

B9: ABII60A10 = ABII050 (VHH)
VHH: EVQLVESGGGLVQAGGSLRLSCAASGRTFNNYNMGWFRQAPGKEREFVAAVSRSGVSTYYADSVKGRFTISRDNAKNAVYLQMNSLKPEDTAIYYCGAAYRGTAINVRRSYDSWGQGTQVTVSS
For B9, the EC50 [1] was 0.8 nM, the EC50 [2] was 4.9 nM and the EC50 [12] was 0.8 nM. The EC50 [13] was 4.9 nM, the “fold improved IC50 against reference VHH 2D2” value [14] was 36 fold and the “inhibition of peptide aggregation” value [3] was 80%. The IC50 [15] was 11.1 nM, the “Aggregation inhibition (% inhibition at 26 µM)” value [16] was 80% and the binding result (A-beta(12-28) peptide) was “binds”. The IC50 [17] was 19 nM, the IC50 [9] was 6.3 nM and the IC50 [10] was greater than 1000 nM. It also gave an IC50 [4] of 11.1 nM, an IC50 [11] of 30 nM and an IC50 [18] of 19 nM.

B10: ABII059 (VHH)
VHH: B9 VHH with V5L, A14P, E44G, A75S, A78T, K87R, I93V, G97A, D112S, Q119L
notes: humanized variant of ABII050
With B10 the binding result [19] was “binds”, the “fold difference of EC50 against the 2D2 and 2G6 VHHs” value [20] was greater than 50 fold and the “Aggregation inhibition (% inhibition at 26 µM)” value [16] was 80%. The IC50 [17] was 33 nM, the IC50 [9] was 12.8 nM and the IC50 [18] was 33 nM.

B11: ABII315-PEG20 (designed binder)
chain: EVQLLESGGGLVQPGGSLRLSCAASGRTFNNYNMGWFRQAPGKGREFVAAVSRSGVSTYYADSVKGRFTISRDNSKNTVYLQMNSLRPEDTAVYYCAAAYRGTAINVRRSYSSWGQGTLVTVSSGGGGCGGGSEVQLLESGGGLVQPGGSLRLSCVHSGPTFRTDTMGWFRQAPGKGREFVAAVTWNSGRINYADSVKGRFTISRDNSKNTAYLQMNSLRPEDTAVYYCAAHRFVVGGNRVEDWRYWGQGTLVTVSS
modifications: PEG20 on the Cys at position 5 of the 9GS linker
notes: 059-9GSC-035; purified as His6-tagged construct before PEGylation
In the case of B11, the “fold improved IC50 against monovalent ABII035” value [21] is reported as 27 fold, the “fold improved potency against 3D6 IgG” value [21] is reported as 14.6 fold and the IC50 [8] is reported as 0.13 nM. The IC50 [9] was 0.28 nM.

B12: ABII60D2 (VHH)
VHH: EVQLVESGGGSVQAGGSLRLSCAYSGSIFSIKTMGWYRQAPGKQRELVGRITSGDSTNYADSVKGRFTISRDKAKTTVYLQMNNLKPEDTAVYYCAARRPWPRSDVWGQGTQVTVSS
In the case of B12, the EC50 [2] is reported as greater than 1000 nM and the binding result (A-beta(1-16) peptide) is reported as “binds”.

B13: reference VHH 2G6 (VHH)
VHH: QVKLEESGGGLVQPGGSLRLSCAASGFTFSNYWMYWVRQAPGKGLEWVSTISPRAANTYYADSVKGRFTISRDNAKNTLYLQMNSLEPDDTALYYCAKSLRYRDRPQSSDFLFWRQGTQVTVSS
notes: from WO2006/40153
B13 was tested, and the EC50 [1] was 7.2 nM, the EC50 [2] was 98.6 nM and the EC50 [12] was 7.2 nM. For the same binder, the EC50 [13] was 98.6 nM, the IC50 [15] was greater than 1000 nM and the “Aggregation inhibition (% inhibition at 26 µM)” value [16] was 29%. It also gave an IC50 [5] greater than 1000 nM.

B14: ABII42G10 (VHH)
VHH: EVQLVESGGGLVQAGGSLRLSCLFSGRTFSTNGVGWFRQVPGKEREFVSAINWSGSKTNYAEPVKGRFTISRDNAKNTAYLQMNSLKPEDTAVYYCAAYRTSISRYEYAYWGQGTQVTVSS
For B14, the EC50 [1] was 49.5 nM, the EC50 [2] was 87 nM and the binding result (A-beta(1-16) peptide) was “binds”. The IC50 [5] was greater than 1000 nM.

B15: ABII42B10 (VHH)
VHH: EVQLVESGGGLVQRGGSLRLSCAASGRTFSNLNMGWFRQAPGKEREFQAAISRSGGTTYYADSVKGRFTISRDNAKSTVFLQMNSLKPEDTAVYYCAAASPGGPINYGRAYDSWGQGTQVTVSS
For B15, the EC50 [1] was 2.1 nM, the EC50 [2] was 10.8 nM and the “inhibition of peptide aggregation” value [3] was 77%. For the same binder, the binding result (A-beta(12-28) peptide) was “binds” and the IC50 [4] was 85.6 nM.
